Tests used:
[1] = target: 30S ribosomal subunit (E. coli) (UniProt P0A7R9); assay: FRET or BRET; as a4, with 5 µM GE81112
[2] = target: 30S ribosomal subunit (E. coli) (UniProt P0A7R9); assay: FRET or BRET; as a4, with 5 µM edeine

## IF3 E166C, double-labelled (IF3DL) (from UniProt P0A707 1-180) (natural protein)
[1]
  fold reduction of koff with GE81112 against no antibiotic: 2 fold
[2]
  fold reduction of koff with edeine against no antibiotic: 4 fold

Source: paper PMC11903750
